The supplement of paper PMC7877785
± gives the uncertainty stated by the source.

Assay: self-splicing fitness, log relative to wild type (ln ratio); higher = more splicing; Tetrahymena group I intron in knt gene, E. coli kanamycin selection, DiMSum; sequences stand for … in CUCUCU…GGAGGGAAAAGUUAUCAGGCAUGCACCUGGUAGCUAGUCUUUAAACCAAUAGAUUGCAUCGGUUUAAAAGGCAAGACCGUCAAAUUGCGGGAAAGGGGUCAACAGCCGUUCAGUACCAAGUCUCAGGGGAAACUUUGAGAUGGCCUUGCAAAGGGUAUGGUAAUAAGCUGACGGACAUGGUCCUAACCACGCAGCCAAGUCCUAAGUCAACAGAUCUUCUGUUGAUAUGGAUGCAGUUCACAGACUAAAUGUCGGUCGGGGAAGAUGUAUUCUUCUCAUAAGAUAUAGUCGGACCUCUCCUUAAUGGGAGCUAGCGGAUGAAGUGAUGCAACACUGGAGCCGCUGGGAACUAAUUUGUAUGCGAAAGUAUAUUGAUUAGUUUUGGAGUACUCGUGGUCG
Outline: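 Library with all eight P1ex-region intron nucleotides randomised, intron inside the knt kanamycin-resistance gene on pET-22b(+), in E. coli BL21(DE3). Cells grew overnight at 37°C or 30°C on LB agar with or without 25 μg/mL kanamycin (plus 100 μg/mL carbenicillin, 50 μM IPTG, 0.2% rhamnose), in six replicate transformations. Pooled colonies were amplicon-sequenced on Illumina HiSeq 2500. DiMSum fitness is the error-weighted combination of wild-type-normalised replicate fold changes, kanamycin versus none.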

| Sequence | self-splicing fitness (ln) (30 °C) | self-splicing fitness (ln) (37 °C) |
| --- | --- | --- |
| CUUGAGCAAUAUUACGAGGU | -2.39 ± 0.19 | -2.42 ± 0.22 |
| CUUGAGCAAUAUUACGAUCA | – | -2.89 ± 0.48 |
| CUUGAGCAAUAUUACGAUGG | -2.94 ± 0.2 | -2.13 ± 0.23 |
| CUUGAGCAAUAUUACGCGGG | -3.92 ± 0.3 | -0.302 ± 0.18 |
| CUUGAGCAAUAUUACGCGUG | -2.84 ± 0.18 | -0.143 ± 0.11 |
| CUUGAGCAAUAUUACGCUCG | -1.7 ± 0.17 | -2.65 ± 0.44 |
| CUUGAGCAAUAUUACGCUGU | -2.28 ± 0.19 | -2.06 ± 0.32 |
| CUUGAGCAAUAUUACGGAGU | -1.09 ± 0.13 | -1.97 ± 0.28 |
| CUUGAGCAAUAUUACGGAUC | – | -1.45 ± 0.31 |
| CUUGAGCAAUAUUACGGGCC | – | -2.81 ± 0.34 |
| CUUGAGCAAUAUUACGGUGC | -3.34 ± 0.35 | -2.19 ± 0.42 |
| CUUGAGCAAUAUUACGGUUA | -2.25 ± 0.15 | -3.21 ± 0.3 |
| CUUGAGCAAUAUUACGUAAC | -1.67 ± 0.38 | – |
| CUUGAGCAAUAUUACGUGAG | -2.89 ± 0.12 | -1.28 ± 0.12 |
| CUUGAGCAAUAUUACGUGCU | -1.93 ± 0.11 | -3.89 ± 0.42 |
| CUUGAGCAAUAUUACGUUAU | -3.45 ± 0.27 | -2.77 ± 0.36 |
| CUUGAGCAAUAUUACGUUGU | -3.73 ± 0.14 | -2.94 ± 0.14 |
| CUUUAGCAAUAUUACGAAAC | – | -1.65 ± 0.32 |
| CUUUAGCAAUAUUACGAGCG | -1.16 ± 0.073 | 0.0581 ± 0.12 |
| CUUUAGCAAUAUUACGAGGG | -3.57 ± 0.21 | -2.26 ± 0.27 |
| CUUUAGCAAUAUUACGAGUG | -0.24 ± 0.06 | -0.267 ± 0.077 |
| CUUUAGCAAUAUUACGCACC | -2.92 ± 0.43 | – |
| CUUUAGCAAUAUUACGCAGU | -1.8 ± 0.3 | -2.34 ± 0.49 |
| CUUUAGCAAUAUUACGCUAU | -3.66 ± 0.31 | -1.68 ± 0.23 |
| CUUUAGCAAUAUUACGGAGU | – | -2.46 ± 0.48 |

| Sequence | self-splicing fitness (ln) (30 °C) | self-splicing fitness (ln) (37 °C) |
| --- | --- | --- |
| CUUUAGCAAUAUUACGGGCA | -3.41 ± 0.26 | -2.67 ± 0.21 |
| CUUUAGCAAUAUUACGGGUG | -0.377 ± 0.072 | 0.108 ± 0.091 |
| CUUUAGCAAUAUUACGGUCG | -0.496 ± 0.055 | -0.259 ± 0.083 |
| CUUUAGCAAUAUUACGUAAU | -2.49 ± 0.16 | -2.78 ± 0.33 |
| CUUUAGCAAUAUUACGUAGA | -2.52 ± 0.22 | -2.53 ± 0.33 |
| CUUUAGCAAUAUUACGUCAC | – | -0.481 ± 0.4 |
| CUUUAGCAAUAUUACGUCCG | -0.0797 ± 0.084 | -0.326 ± 0.099 |
| CUUUAGCAAUAUUACGUCCU | – | -1.9 ± 0.31 |
| CUUUAGCAAUAUUACGUCGU | -2.27 ± 0.36 | -3.05 ± 0.37 |
| CUUUAGCAAUAUUACGUCUG | -0.534 ± 0.094 | -0.218 ± 0.12 |
| CUUUAGCAAUAUUACGUGUC | -2.98 ± 0.21 | -1.55 ± 0.17 |
| CUUUAGCAAUAUUACGUUAC | -3.92 ± 0.34 | -1.74 ± 0.29 |
| CUUUAGCAAUAUUACGUUGU | -3.88 ± 0.17 | -3.45 ± 0.21 |
| CUUUAGCAAUAUUACGUUUA | -3.03 ± 0.24 | -1.64 ± 0.17 |
| GAAAAGCAAUAUUACGAAAG | -3.5 ± 0.15 | -1.9 ± 0.14 |
| GAAAAGCAAUAUUACGAAUU | -1.37 ± 0.11 | -0.667 ± 0.12 |
| GAAAAGCAAUAUUACGACUC | 0.143 ± 0.2 | -0.00506 ± 0.28 |
| GAAAAGCAAUAUUACGAGCU | -0.618 ± 0.069 | -0.352 ± 0.091 |
| GAAAAGCAAUAUUACGCACA | -0.807 ± 0.093 | -0.0907 ± 0.14 |
| GAAAAGCAAUAUUACGCCGC | -2.23 ± 0.25 | – |
| GAAAAGCAAUAUUACGCGAU | -2.88 ± 0.28 | -2.32 ± 0.33 |
| GAAAAGCAAUAUUACGCGCC | -2.06 ± 0.16 | -1.25 ± 0.17 |
| GAAAAGCAAUAUUACGCGGA | -2.25 ± 0.14 | -0.603 ± 0.13 |
| GAAAAGCAAUAUUACGCUUC | -3.71 ± 0.12 | -2.77 ± 0.14 |
| GAAAAGCAAUAUUACGGACU | 0.147 ± 0.069 | 0.272 ± 0.087 |

| Sequence | self-splicing fitness (ln) (30 °C) | self-splicing fitness (ln) (37 °C) |
| --- | --- | --- |
| GAAAAGCAAUAUUACGGAUA | -1.32 ± 0.13 | -1.18 ± 0.12 |
| GAAAAGCAAUAUUACGGCUU | -0.227 ± 0.082 | 0.0447 ± 0.096 |
| GAAAAGCAAUAUUACGGGAC | -1.06 ± 0.12 | -2.06 ± 0.18 |
| GAAAAGCAAUAUUACGGGAU | -2.18 ± 0.14 | -1.26 ± 0.12 |
| GAAAAGCAAUAUUACGGGCC | -1.09 ± 0.14 | -1.37 ± 0.17 |
| GAAAAGCAAUAUUACGGGGG | -3.11 ± 0.21 | -1.15 ± 0.17 |
| GAAAAGCAAUAUUACGGGGU | -3.91 ± 0.26 | -2.32 ± 0.23 |
| GAAAAGCAAUAUUACGGGUG | -2.23 ± 0.079 | -1.18 ± 0.1 |
| GAAAAGCAAUAUUACGUAGC | -2.66 ± 0.15 | -1.51 ± 0.15 |
| GAAAAGCAAUAUUACGUAUG | -1.6 ± 0.079 | -1.74 ± 0.12 |
| GAAAAGCAAUAUUACGUCCA | -0.703 ± 0.064 | 0.0901 ± 0.089 |
| GAAAAGCAAUAUUACGUCCC | -0.229 ± 0.17 | 0.0916 ± 0.2 |
| GAAAAGCAAUAUUACGUGAC | -4.06 ± 0.34 | -1.17 ± 0.17 |
| GAAAAGCAAUAUUACGUUAG | -2.27 ± 0.12 | -1.85 ± 0.14 |
| GAACAGCAAUAUUACGAUAU | -1.36 ± 0.061 | -0.525 ± 0.074 |
| GAACAGCAAUAUUACGAUCA | -0.605 ± 0.089 | -0.214 ± 0.11 |
| GAACAGCAAUAUUACGAUUA | -0.501 ± 0.11 | -0.296 ± 0.098 |
| GAACAGCAAUAUUACGCACG | -1.38 ± 0.18 | 0.123 ± 0.13 |
| GAACAGCAAUAUUACGCACU | 0.254 ± 0.079 | 0.0329 ± 0.11 |
| GAACAGCAAUAUUACGCCCA | 0.617 ± 0.17 | -0.316 ± 0.24 |
| GAACAGCAAUAUUACGCCGC | – | -2.35 ± 0.34 |
| GAACAGCAAUAUUACGCCUC | -1.81 ± 0.17 | -1.89 ± 0.26 |
| GAACAGCAAUAUUACGCGUU | -3.27 ± 0.12 | -2.69 ± 0.14 |
| GAACAGCAAUAUUACGCUCG | -0.797 ± 0.1 | -0.128 ± 0.15 |
| GAACAGCAAUAUUACGGACA | -1.3 ± 0.1 | -0.732 ± 0.09 |

| Sequence | self-splicing fitness (ln) (30 °C) | self-splicing fitness (ln) (37 °C) |
| --- | --- | --- |
| GAACAGCAAUAUUACGGACC | -0.915 ± 0.12 | 0.0387 ± 0.14 |
| GAACAGCAAUAUUACGGGGA | -1.6 ± 0.087 | -0.774 ± 0.09 |
| GAACAGCAAUAUUACGGGUC | -2.3 ± 0.19 | -3 ± 0.27 |
| GAACAGCAAUAUUACGGUCG | -1.17 ± 0.069 | -0.372 ± 0.098 |
| GAACAGCAAUAUUACGGUCU | -1.16 ± 0.086 | -0.205 ± 0.095 |
| GAACAGCAAUAUUACGUCUG | -2.54 ± 0.079 | -0.775 ± 0.077 |
| GAACAGCAAUAUUACGUGAA | -0.968 ± 0.061 | -0.396 ± 0.069 |
| GAACAGCAAUAUUACGUUUG | -2.2 ± 0.067 | -0.632 ± 0.075 |
| GAAGAGCAAUAUUACGAAUU | -3.24 ± 0.18 | -2.21 ± 0.23 |
| GAAGAGCAAUAUUACGACCU | -1.45 ± 0.13 | -0.296 ± 0.18 |
| GAAGAGCAAUAUUACGACUU | -0.765 ± 0.12 | 0.131 ± 0.14 |
| GAAGAGCAAUAUUACGAGCC | -1.61 ± 0.24 | -0.252 ± 0.36 |
| GAAGAGCAAUAUUACGAUAC | -2.75 ± 0.39 | – |
| GAAGAGCAAUAUUACGAUGA | -3.03 ± 0.31 | -1.57 ± 0.17 |
| GAAGAGCAAUAUUACGCACA | -1.91 ± 0.16 | -1.07 ± 0.14 |
| GAAGAGCAAUAUUACGCAUU | -4.28 ± 0.2 | -2.2 ± 0.2 |
| GAAGAGCAAUAUUACGCCGC | -2.05 ± 0.47 | – |
| GAAGAGCAAUAUUACGGACC | -1.57 ± 0.14 | -0.884 ± 0.19 |
| GAAGAGCAAUAUUACGGGAA | -3.54 ± 0.47 | -1.72 ± 0.28 |
| GAAGAGCAAUAUUACGGGGC | -3.46 ± 0.28 | -2.28 ± 0.26 |
| GAAGAGCAAUAUUACGGGUC | -1.86 ± 0.27 | – |
| GAAGAGCAAUAUUACGGGUU | -3.11 ± 0.2 | -2.22 ± 0.2 |
| GAAGAGCAAUAUUACGGUAA | -2.16 ± 0.29 | -1.01 ± 0.24 |
| GAAGAGCAAUAUUACGGUAG | -3.51 ± 0.17 | -3.01 ± 0.22 |
